The results in this text go back to a protein production outcome set (Wang et al. 2014).
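Also: failed if final PepcDB status was selected cloned or expressed and not failed if soluble or beyond.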

The data set can be described thus: label from the status in PepcDB records.
Take “MKKQYWWIIVTYILMQLSGVVGLPLLLKTGLYDNRGFTIEEKGQIITGHWAIISFFIALCIVLWLLRTDIRDRHLDPMRSSVPATIGWIFIGFFLAIISQSIAGMIEMYVFGVPRGSENTDRLLDIARTIPWFLIVVSIIGPILEEIVFRKILFGTLYKKFNFFIAAIISSLVFATIHFDFTHLLVYTAMGLVFAFLYVKTKRIIVPIAAHVAMNTLVAIGQIFMSNEQIQEMIKEAEKMQGFIGGFFV”: the protein production entry is “failed”.

For “MKKRLFVLSLILLVALDQLSKFWIVSHIALGEVKPFIPGIVSLTYLQNNGAAFSILQDQQWFFVVITVLVIGYAIYYLATHPHLNIWKQLALLLIISGGIGNFIDRLRLAYVIDMIHLDFVDFAIFNVADSYLTVGVILLLICLWKEEDYGN”, the protein production result is “failed”.

For the sequence “MKKSINEQKTIFIILLSNIFVAFLGIGLIIPVMPSFMKIMHLSGSTMGYLVAAFAISQLITSPFAGRWVDRFGRKKMIILGLLIFSLSELIFGLGTHVSIFYFSRILGGVSAAFIMPAVTAYVADITTLKERSKAMGYVSAAISTGFIIGPGAGGFIAGFGIRMPFFFASAIALIAAVTSVFILKESLSIEERHQLSSHTKESNFIKDLKRSIHPVYFIAFIIVFVMAFGLSAYETVFSLFSDHKFGFTPKDIAAIITISSIVAVVIQVLLFGKLVNKLGEKRMIQLCLITGAILAFVSTVMSGFLTVLLVTCFIFLAFDLLRPALTAHLSNMAGNQQGFVAGMNSTYTSLGNIFGPALGGILFDLNIHYPFLFAGFVMIVGLGLTMVWKEKKNDAAALN”, the protein production result is “failed”.

As to “MKKSLLMLLLSAATLSSIEAQTIQQMKAGGPWPVRAAFKTDTVGMNGSKYNPADLLRQAYDATDKDLRNVSADKDGRIAGRKAGSKAERSEMAVYSFALTAEHFAKGDIEVFGQGRMSLWLDDKQIGIADSPNSKGDTTLRFSASLSLVPGTHHLLLKSLLLEGDTTATDVRVVLKPKTARDSSALYPNYTGKERLSLKHMMSGTFLSGGSLSPTGKYVLTSYRVSRDNKPAVTYNQLRDAKGNILLNLNEKEALGWMPHEDMLMVIRKEGNAKRLVAFDPMGKGEKTLVSNLPESQFRMSPDARYYLFYKQEKGPGKDPLFIRHLDPDDRQSDWRDRSQIYLLNAESGVYGPLTFGYSTTYIYDIAPDSKRALIGTLSTDWTRRPFRFATIMEYNMETGKADTLITRDPSIDAIQYTPDGKHLIVMGSADAFGNIGLNLKSGVTPNSYDKQFFLFDLSTRKATALTKNFNPSVSAGRFDRKNNYYYFRAENGSRKQLYRLDLKTLEISQIQTGEDVVQWFGVAADNGAVWYSGQSANNADRLYRLDGTKGKLVWDLSAEKLANIDFTPARDWNYTAPDGTVVEGWYYLPPQFDPSKKYPMLVYYYGGTSPINRTLEGHYSLAMYAAQGYVVYTLNPSGTTGYGQEYAARHVNAWGDRTADEIIGATKEFIRTHSFVNGKKVGCFGASYGGFMTQYLQTKTDIFAAAVSHAGISSISNYWGSGYWGMGYSTVASTDSYPWNNPDLYAGHSPLFRADKIHTPLLLLHGSVDTNVPTAESVNLYNALKILGREVEFIEFTEQDHFILEPERRIRWTNSICAWFARWLQDDPTWWNELYPPVNL”, the protein production entry is given as “failed”.

Turning to “MKKTFNLVATAAAGIEAVVGKELRNLGLDCQVENGRVLFKGNIETIAKSNLWLRSADRIKIVVGEFPARTFEELFQGVYALDWENYLPLGCQFPVAKAKSVKSKLHNEPSIQGITKKAIVKKLQHYFHRPDSVPLPENGPEFKIEISLLKDQARVMIDTTGPSLFKRGYRTEKGGAPIKENMAAAIILLSNWFPDKPFVDPTCGSGTFCIEAAMIGMNIAPGFNRDFAFEEWPWVDEALVTRVRNEADEQADYDIQLDISGFDFDGRMVEIARKNAREVGLEDVVKLKQMRLQDFKTNKINGVLISNPPYGERLLDDKAVDILYNEMGETFAPLKTWSQFILTNDTDFEQKFGRKADKKRKLYNGSLKVDLYQFYGQRVKRVLR”, the protein production result was “not failed”.

For “MKKTIEKILKDIIDATSITDMCDKSVCHWLQPVVDTIVFPEYYLFSSNHLKENIISLLIVLGVLLIFGLIVEEMMKRIFRKNEEKYMWVHKIFEKVIVAFLLFYSMKTIIYFIALKHHSF”, the protein production result is recorded as “failed”.

As to “MKKTPIYVEISIQAEMERLWRYTQDPTLHRQWDLRFTDITYLKRRPGEPQRFLYETRIGFGLEHHHHHH”, the protein production entry is “not failed”.

As to “MKKTTLVLSALALSIGFAMGPVSSVVAAETAASSSQQLPSLAPMLEKVMPSVVSINVEGSAPVSSAGARGMPPQFQQFFGDNSPFCQDGSPFQGSPMCQGDLGGLGQGMPSKREFRSLGSGVIIDAGKGYVVTNNHVVDNANKISVKLSDGRSFDAKVIGKDPRTDIALLQLKDAKNLTAIKIANSDQLRVGDYTVAIGNPYGLGETVTSGIVSALGRSGLNVENYENFIQTDAAINRGNSGGALINLNGELIGINTAILAPDGGNIGIGFAIPSNMVKNLTSQMVEFGQVKRGELGIMGTELNSELAKAMKVDAQKGAFISQVVPKSAAAKAGIKAGDIIVSMNGKAINSFAGFRAEIGTLPVGSKMTLGLLRDGKPINVDVVLEQSSHSQVESGNLYTGIEGAELSNSDVSGKKGVKVDSVKPGTAAARIGLKKGDIIMGINQQPVQNLGELRKILDAKPPVLALNIQRGDTSLYLLMQ”, the protein production entry is “failed”.

In the case of “MKKTVIKETERLLILLGATGLLSGIGIVMNGTPITAQATTTTTQTQGILHSGDFGTSHWYISDDLTLHIGAGTFANLSNSQSAPPWTAYGDQVAKIVIEGPVTLAPNSRELFGYLGATSIEGLDQIDASHVTNFEFAFFGIQVPNLDLTSWDVHNVTDAGFMFMRAQSDVINLSGWQMPKLKLAQWMFMLAPRVHELDLAGINFRNADATRALMNMNLTVIHLGPDSLLTGTNLQPFHNDAYQDMWQDIGDGTTEAPTGKNRYTYSQLMAEFKGAAPYTYVRAKNPGQPVTVQYLDQLNQALVKADTLTGYYGDTFTAQAKTFAGYHVTSVDGEPTGTFGSRPYTVTYHYAVDEKNQQSLLGEDATITVGDPAPTSETFKAKATDKDGQALPVVVDLSQATLNQPGRYPVTLTTRDGQSKAVTLTVKAADESSSSSSSSSIDRSHSSSTPTSSSNSDDSLSSGDLISGGDTDLAVFKGQAVYATKTVRLYQRPTFKASQVRARYAKQSRTKRPMFVVIGSAHSKHHALRFKVRDVNHHSKTAGKVGYITAKKAYVTNVYYQRTYTRVTVINPQGVNGYRTRKLTGKTRHYRRGQTLRVKRLVRYHLTTRYVLTNGRYVTTNKKLVKVQQNSVQQSTQHSAAVTTRTIK”, the protein production result is on record as “failed”.

In the case of “MKKVLALVAFVVLFSFSFLSAGVTAQAALKDGTYSVDYTVLQGDSDSVSMANDYFDKPATVTVNGGKSTVSLQVNHSKWITGLWVEGNAVSVTSKNTASDTRKVSFPVSTLSSPVNAKIKVDIDDDGLNYHHEYQIQLRFDEGAVKSSGAAV”, the protein production result is “failed”.

In the case of “MKKVLPALLMGFVGLNASDRLLEIMRLYQKQGLEMVGQKLDSYLADKSFWAEELQNKDTDFGYYQNKQFLFVANKSKPSLEFYEIENNMLKKINSSKALVGSKKGDKTLEGDLATPIGVYRITQKLERLDQYYGVLAFVTNYPNLYDTLKKRTGHGIWVHGMPLNGDRNELNTKGCIAIENPLLSSYDKVLKGEKAFLITYEDKFFPSTKEELSMILSSLFQWKEAWARGDFERYMRFYNPNFTRYDGMKFNAFKEYKKRVFAKNEKKNIAFSSINVIPYPNSQNKRLFYVVFDQDYKAYQHNKLSYSSNSQKELYIEIENNQVSIIMEK”, the protein production entry was “failed”.

For “MKKYNVDWNYWVVRFLFVMALIVGYLLITNYQHFVHSVSGLLGILSPFITGFVIAYLLSGSQKKIEGLLERVPLPVVKKAKHGLSVLLLYLIILFIFVLTLNYIVPLLISNLVDLANSLPTFYDHMVQFVMSLEDKGILKTAAIEKYLNSVLKDLSPERFLNQWTQALFSLGTLTKNVSSFFLNAFLTLIISIYALVFKQSILTFVEKAAHKLLSEKVYKQTQTWLNTTNKIFYKFISCQFLDACIIGVSSTILLSILNVKFAVTLGILLGICNMIPYFGSIFASIVAGVITLFTGGVTQAITVLLVLLILQQIDGNIIGPRIMGDALNVNPILIIVSITIGGAYFGVLGMFLAVPVAAIIKIIVSEWLNESKENDKIVDSIES”, the protein production entry is given as “failed”.

Consider “MKLALVNRQVILPESGTESFQCHASTLVRLPCGTLVAAWFAGLREGSEDTAIWLSRYEHNIWTTPQRVAAREGEAHWNPVLFYPSDKLWLFYKVGSDVHVWKTWFITSSDRGFTWSTPAPLVNDDILPRGPVKNKLLLASNGAWIAPGSIESPERWRAFVDRSSDEGKHWSISFVPLEPDNAISGTNVALWDGIKKGRLWECCLENLLRWDGVIQPTLWESSPGHIHMLLRSTRGAIFRSDSIDYGATWSVARATSLPNNNSGIDLVSMQDGTLILALNPVNGNWGKRYPLSLIASQDNGESWLPLLDLESDHGEYSYPAIISEGGIVHITYTWNRKNIVYCRLQTVLEHHHHHH”, for which the protein production result is “failed”.

“MKLATFDDGSRDGRLLVVARDLGHAVDASDIATSLQVALENWPQVEARLQALYQQLNDDAVAGAFALDLARLAAPLPRASQWLDGSCFLSHGALMQKAFNLDPIEGVEHTPLIYQGASDDFLGPLADIPLPSEAHGIDFEGEFAVLLDDVPMGCPAEQALQHVRLILQLNDVSLRALAPREMKTGFGFLQAKPASSFAPVAVTPDELGEAWRDGRVHLPLHVHWNGEWFGHPHGGAMHFGFHQLIAHAALTRRLSAGTLLGSGTVSNAERSVGSACIAERRAIETIACGAPRTAFMRFGDRVRMEARGPEGEVLFGAIDQRVVRGGWPCE”: the protein production entry is on record as “failed”.

As for “MKLEKLIPWLAGGLAVVGAAIAVIPPSPVRGFDTDAFGRLPVLEGGRVKPVDSVSRNALLMIRGQQSFRYDPDGDGPQKGRTISSDEWILDVLFRPELADQYPVFVINDPEVLGLMGMRQSSNRYFAFSALVPHLEEIQKQAMAAHQVDAKQRTRFQSAIANLFERVYLYYRLKNTVQLAGSPGLAAEVASAGTPGAQQRHQAIEELAYFRPIPPAAGTTGDDWLNMGQALRGAASGQVGDALSGWARLSVAYMAQDPSSFGRAVADVTAADAAARPDSIDLAGHEIVFNRAQPFYAGMVVYVLAMLALFASWLWKPKILQPAAYGLLVAGALIHTLGLVSRVLLQGRPPVTNLYSSAVFVGWGAVVLGVILERIYRKGFATAVAAASGFASLIVAHHLSGDGDTMEMMRAVLDSNFWLATHVVTITIGYSGTFLAGAMAIGYTLRKHLVRKPDPGTTKALMGMTYGVICFALFFSFLGTVLGGIWADQSWGRFWGWDPKENGALLIVLWNAIILHARWGGFVRERGIMAMAIFGNVITSLSWFGVNMLGVGLHSYGFMDSAFWALTGFIASQLAIMAFTLLPAQFWRTAHAAGKQQEPSPEPGH”, the protein production result was “failed”.

Regarding “MKLGVNLCFAVKRWLEPDRLAGLVRDDLGLEYVQYTYDLTDPWWPDIERDRRAIAYAKAFRKAGLTIESTFGGLASYTYNHFLAPTLELQSLGYQHLKRAIDMTAAMEVPATGMPFGSYSAADALNPARREEIYAIARDMWIELAAYAKRQGLSMLYVEPVPLATEFPSSAADAARLMADLDGRTEIPVRLLVDWGHALFEPLFGPEADMDHWMDLCQPWIAAYHIQQTDGQLDRHWSFTQPGVVTPQRLQDFWDKYALTDQTFFAEILYPFEARDEDVLADMIASVKALKAASPAA”, the protein production result is on record as “not failed”.

Consider “MKLICSKANLLKGVNIVSKAVPTRTTMAILECILIDASANEIKLMANDMELGIETIIDGTIEERGIIALDAKIFSEIVRKLPDNDVTIETDASFKTVISCEKAKFNIIGKSGDDFSYIPYVERNESIVLSQFTLKEVIRQTIFSIADNDNNKLMTGELFEIEENKLRVVSLDGHRISIRYIEMKNHYDSKKVVVPGKTLQEISKIIPGSADEDVVIYITNNHIVFEFENTTVVSRLIEGEYFKIDQMLSSDYDTKVRINKRELLDCIDRATLLVKEGDKKPIIMNITDGNMELRINSFIGSMNEDIDIDKDGKDIMIGFNPKFFIDALRVIDEEEVNLYMVNPKAPCFIKDDEGKFIYLILPVNFNTAAN”, for which the protein production entry is recorded as “not failed”.
